{"source": "patent US20200317768A1", "about": "(published 2020)"}
{"molecular_target": "T1, human FcγRIIb extracellular domain, His-tagged (human, UniProt P31994 43-217)", "T1 construct": "also called FcgRIIb (human); not shown: C-terminal His-tag", "T1 sequence": "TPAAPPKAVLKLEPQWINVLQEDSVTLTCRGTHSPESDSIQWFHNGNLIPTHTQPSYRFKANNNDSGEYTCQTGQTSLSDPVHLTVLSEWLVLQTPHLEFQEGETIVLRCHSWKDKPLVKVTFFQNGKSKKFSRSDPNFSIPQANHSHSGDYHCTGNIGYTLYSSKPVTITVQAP", "experiment": "SPR (BIACORE), captured antibody, FcgR as analyte", "units": {"Kd": "nM"}}
{"binder": "M103205H795-MY448/M103202L889-SK1 (antibody, human IgG1, kappa, copies: 2 + 2) heavy: QVTLKESGPVLVKPTETLTLTCTVSGIDLSHDDISWVRQAPGKGLEWVGIISYAGSTYYASWAKGRLTISKDTSKNQVVLTMTNMDPVDTATYYCARGVPAYSHGGDLWGQGTLVTVSSASTKGPSVFPLAPSSKSTSGGTAALGCLVKDYFPEPVTVSWNSGALTSGVHTFPAVLQSSGLYSLSSVVTVPSSSLGTQTYICNVNHKPSNTKVDKKVEPKSCDKTHTCPPCPAKELLTGPSVFLFPPKPKDTLMISRTPEVTCVVVDVSDEDPEVKFNWYVDGVEVHNAKTKPREEQYNSTYRVVSVLTVLHQDWLNGKEYKCKVSNKALPKPIEKTISKAKGQPREPQVYTLPPSREEMTKNQVSLTCLVKGFYPSDIAVEWESNGQPENNYKTTPPVLDSDGSFFLYSKLTVDKSRWQQGNVFSCSVMHEALHNHYTQKSLSLSP light: DIVMTQSPATLSLSPGERATLSCTSSQSVYHANWLSWFQQKPGQPPKLLIYWASTLAYGVPSRFSGSGSGTDFTLTISSLQPEDAATYYCAGGYGGGRYAFGQGTKVEIKRTVAAPSVFIFPPSDEQLKSGTASVVCLLNNFYPREAKVQWKVDNALQSGNSQESVTEQDSKDSTYSLSSTLTLSKADYEKHKVYACEVTHQGLSSPVTKSFNRGEC", "Kd": 8400}
{"binder": "M103205H795-MY465/M103202L889-SK1 (antibody, human IgG1, kappa, copies: 2 + 2) heavy: QVTLKESGPVLVKPTETLTLTCTVSGIDLSHDDISWVRQAPGKGLEWVGIISYAGSTYYASWAKGRLTISKDTSKNQVVLTMTNMDPVDTATYYCARGVPAYSHGGDLWGQGTLVTVSSASTKGPSVFPLAPSSKSTSGGTAALGCLVKDYFPEPVTVSWNSGALTSGVHTFPAVLQSSGLYSLSSVVTVPSSSLGTQTYICNVNHKPSNTKVDKKVEPKSCDKTHTCPPCPKPELLTGPSVFLFPPKPKDTLMISRTPEVTCVVVDVSDEDPEVKFNWYVDGVEVHNAKTKPREEQYNSTYRVVSVLTVLHQDWLNGKEYKCKVSNKALPKPIEKTISKAKGQPREPQVYTLPPSREEMTKNQVSLTCLVKGFYPSDIAVEWESNGQPENNYKTTPPVLDSDGSFFLYSKLTVDKSRWQQGNVFSCSVMHEALHNHYTQKSLSLSP light: DIVMTQSPATLSLSPGERATLSCTSSQSVYHANWLSWFQQKPGQPPKLLIYWASTLAYGVPSRFSGSGSGTDFTLTISSLQPEDAATYYCAGGYGGGRYAFGQGTKVEIKRTVAAPSVFIFPPSDEQLKSGTASVVCLLNNFYPREAKVQWKVDNALQSGNSQESVTEQDSKDSTYSLSSTLTLSKADYEKHKVYACEVTHQGLSSPVTKSFNRGEC", "Kd": 2800}
{"binder": "M103205H795-MY460/M103202L889-SK1 (antibody, human IgG1, kappa, copies: 2 + 2) heavy: QVTLKESGPVLVKPTETLTLTCTVSGIDLSHDDISWVRQAPGKGLEWVGIISYAGSTYYASWAKGRLTISKDTSKNQVVLTMTNMDPVDTATYYCARGVPAYSHGGDLWGQGTLVTVSSASTKGPSVFPLAPSSKSTSGGTAALGCLVKDYFPEPVTVSWNSGALTSGVHTFPAVLQSSGLYSLSSVVTVPSSSLGTQTYICNVNHKPSNTKVDKKVEPKSCDKTHTCPPCPEPELLTGPSVFLFPPKPKDTLMISRTPEVTCVVVDVSDEDPEVKFNWYVDGVEVHNAKTKPREEQYNSTYRVVSVLTVLHQDWLNGKEYKCKVSNKALPKPIEKTISKAKGQPREPQVYTLPPSREEMTKNQVSLTCLVKGFYPSDIAVEWESNGQPENNYKTTPPVLDSDGSFFLYSKLTVDKSRWQQGNVFSCSVMHEALHNHYTQKSLSLSP light: DIVMTQSPATLSLSPGERATLSCTSSQSVYHANWLSWFQQKPGQPPKLLIYWASTLAYGVPSRFSGSGSGTDFTLTISSLQPEDAATYYCAGGYGGGRYAFGQGTKVEIKRTVAAPSVFIFPPSDEQLKSGTASVVCLLNNFYPREAKVQWKVDNALQSGNSQESVTEQDSKDSTYSLSSTLTLSKADYEKHKVYACEVTHQGLSSPVTKSFNRGEC", "Kd": 2400}
{"binder": "M103205H795-MY461/M103202L889-SK1 (antibody, human IgG1, kappa, copies: 2 + 2) heavy: QVTLKESGPVLVKPTETLTLTCTVSGIDLSHDDISWVRQAPGKGLEWVGIISYAGSTYYASWAKGRLTISKDTSKNQVVLTMTNMDPVDTATYYCARGVPAYSHGGDLWGQGTLVTVSSASTKGPSVFPLAPSSKSTSGGTAALGCLVKDYFPEPVTVSWNSGALTSGVHTFPAVLQSSGLYSLSSVVTVPSSSLGTQTYICNVNHKPSNTKVDKKVEPKSCDKTHTCPPCPFPELLTGPSVFLFPPKPKDTLMISRTPEVTCVVVDVSDEDPEVKFNWYVDGVEVHNAKTKPREEQYNSTYRVVSVLTVLHQDWLNGKEYKCKVSNKALPKPIEKTISKAKGQPREPQVYTLPPSREEMTKNQVSLTCLVKGFYPSDIAVEWESNGQPENNYKTTPPVLDSDGSFFLYSKLTVDKSRWQQGNVFSCSVMHEALHNHYTQKSLSLSP light: DIVMTQSPATLSLSPGERATLSCTSSQSVYHANWLSWFQQKPGQPPKLLIYWASTLAYGVPSRFSGSGSGTDFTLTISSLQPEDAATYYCAGGYGGGRYAFGQGTKVEIKRTVAAPSVFIFPPSDEQLKSGTASVVCLLNNFYPREAKVQWKVDNALQSGNSQESVTEQDSKDSTYSLSSTLTLSKADYEKHKVYACEVTHQGLSSPVTKSFNRGEC", "Kd": 1700}
{"binder": "M103205H795-MY463/M103202L889-SK1 (antibody, human IgG1, kappa, copies: 2 + 2) heavy: QVTLKESGPVLVKPTETLTLTCTVSGIDLSHDDISWVRQAPGKGLEWVGIISYAGSTYYASWAKGRLTISKDTSKNQVVLTMTNMDPVDTATYYCARGVPAYSHGGDLWGQGTLVTVSSASTKGPSVFPLAPSSKSTSGGTAALGCLVKDYFPEPVTVSWNSGALTSGVHTFPAVLQSSGLYSLSSVVTVPSSSLGTQTYICNVNHKPSNTKVDKKVEPKSCDKTHTCPPCPHPELLTGPSVFLFPPKPKDTLMISRTPEVTCVVVDVSDEDPEVKFNWYVDGVEVHNAKTKPREEQYNSTYRVVSVLTVLHQDWLNGKEYKCKVSNKALPKPIEKTISKAKGQPREPQVYTLPPSREEMTKNQVSLTCLVKGFYPSDIAVEWESNGQPENNYKTTPPVLDSDGSFFLYSKLTVDKSRWQQGNVFSCSVMHEALHNHYTQKSLSLSP light: DIVMTQSPATLSLSPGERATLSCTSSQSVYHANWLSWFQQKPGQPPKLLIYWASTLAYGVPSRFSGSGSGTDFTLTISSLQPEDAATYYCAGGYGGGRYAFGQGTKVEIKRTVAAPSVFIFPPSDEQLKSGTASVVCLLNNFYPREAKVQWKVDNALQSGNSQESVTEQDSKDSTYSLSSTLTLSKADYEKHKVYACEVTHQGLSSPVTKSFNRGEC", "Kd": 2800}
{"binder": "M103205H795-MY462/M103202L889-SK1 (antibody, human IgG1, kappa, copies: 2 + 2) heavy: QVTLKESGPVLVKPTETLTLTCTVSGIDLSHDDISWVRQAPGKGLEWVGIISYAGSTYYASWAKGRLTISKDTSKNQVVLTMTNMDPVDTATYYCARGVPAYSHGGDLWGQGTLVTVSSASTKGPSVFPLAPSSKSTSGGTAALGCLVKDYFPEPVTVSWNSGALTSGVHTFPAVLQSSGLYSLSSVVTVPSSSLGTQTYICNVNHKPSNTKVDKKVEPKSCDKTHTCPPCPGPELLTGPSVFLFPPKPKDTLMISRTPEVTCVVVDVSDEDPEVKFNWYVDGVEVHNAKTKPREEQYNSTYRVVSVLTVLHQDWLNGKEYKCKVSNKALPKPIEKTISKAKGQPREPQVYTLPPSREEMTKNQVSLTCLVKGFYPSDIAVEWESNGQPENNYKTTPPVLDSDGSFFLYSKLTVDKSRWQQGNVFSCSVMHEALHNHYTQKSLSLSP light: DIVMTQSPATLSLSPGERATLSCTSSQSVYHANWLSWFQQKPGQPPKLLIYWASTLAYGVPSRFSGSGSGTDFTLTISSLQPEDAATYYCAGGYGGGRYAFGQGTKVEIKRTVAAPSVFIFPPSDEQLKSGTASVVCLLNNFYPREAKVQWKVDNALQSGNSQESVTEQDSKDSTYSLSSTLTLSKADYEKHKVYACEVTHQGLSSPVTKSFNRGEC", "Kd": 1900}
{"binder": "M103205H795-MY464/M103202L889-SK1 (antibody, human IgG1, kappa, copies: 2 + 2) heavy: QVTLKESGPVLVKPTETLTLTCTVSGIDLSHDDISWVRQAPGKGLEWVGIISYAGSTYYASWAKGRLTISKDTSKNQVVLTMTNMDPVDTATYYCARGVPAYSHGGDLWGQGTLVTVSSASTKGPSVFPLAPSSKSTSGGTAALGCLVKDYFPEPVTVSWNSGALTSGVHTFPAVLQSSGLYSLSSVVTVPSSSLGTQTYICNVNHKPSNTKVDKKVEPKSCDKTHTCPPCPIPELLTGPSVFLFPPKPKDTLMISRTPEVTCVVVDVSDEDPEVKFNWYVDGVEVHNAKTKPREEQYNSTYRVVSVLTVLHQDWLNGKEYKCKVSNKALPKPIEKTISKAKGQPREPQVYTLPPSREEMTKNQVSLTCLVKGFYPSDIAVEWESNGQPENNYKTTPPVLDSDGSFFLYSKLTVDKSRWQQGNVFSCSVMHEALHNHYTQKSLSLSP light: DIVMTQSPATLSLSPGERATLSCTSSQSVYHANWLSWFQQKPGQPPKLLIYWASTLAYGVPSRFSGSGSGTDFTLTISSLQPEDAATYYCAGGYGGGRYAFGQGTKVEIKRTVAAPSVFIFPPSDEQLKSGTASVVCLLNNFYPREAKVQWKVDNALQSGNSQESVTEQDSKDSTYSLSSTLTLSKADYEKHKVYACEVTHQGLSSPVTKSFNRGEC", "Kd": 1600}
{"binder": "M103205H795-MY459/M103202L889-SK1 (antibody, human IgG1, kappa, copies: 2 + 2) heavy: QVTLKESGPVLVKPTETLTLTCTVSGIDLSHDDISWVRQAPGKGLEWVGIISYAGSTYYASWAKGRLTISKDTSKNQVVLTMTNMDPVDTATYYCARGVPAYSHGGDLWGQGTLVTVSSASTKGPSVFPLAPSSKSTSGGTAALGCLVKDYFPEPVTVSWNSGALTSGVHTFPAVLQSSGLYSLSSVVTVPSSSLGTQTYICNVNHKPSNTKVDKKVEPKSCDKTHTCPPCPDPELLTGPSVFLFPPKPKDTLMISRTPEVTCVVVDVSDEDPEVKFNWYVDGVEVHNAKTKPREEQYNSTYRVVSVLTVLHQDWLNGKEYKCKVSNKALPKPIEKTISKAKGQPREPQVYTLPPSREEMTKNQVSLTCLVKGFYPSDIAVEWESNGQPENNYKTTPPVLDSDGSFFLYSKLTVDKSRWQQGNVFSCSVMHEALHNHYTQKSLSLSP light: DIVMTQSPATLSLSPGERATLSCTSSQSVYHANWLSWFQQKPGQPPKLLIYWASTLAYGVPSRFSGSGSGTDFTLTISSLQPEDAATYYCAGGYGGGRYAFGQGTKVEIKRTVAAPSVFIFPPSDEQLKSGTASVVCLLNNFYPREAKVQWKVDNALQSGNSQESVTEQDSKDSTYSLSSTLTLSKADYEKHKVYACEVTHQGLSSPVTKSFNRGEC", "Kd": 2500}
